# Source: publication PMC4530586, “STIL binding to Polo-box 3 of PLK4 regulates centriole duplication” (eLife, 2015)
# T1: human PLK4-PB3 (884–970), recombinant (human, UniProt O00444 884-970)
# T1 construct: PLK4, human, residues 884–970 (Polo-box 3); isotope-labelled (2H, 15N, 13C) samples were used for NMR; also called Polo-box 3; source: E. coli BL21 DE3, purified (nickel resin, TEV cleavage, Superdex75 SEC); not shown: thioredoxin, N-terminal, cleaved; His6, N-terminal, cleaved
# T1 sequence (looked up): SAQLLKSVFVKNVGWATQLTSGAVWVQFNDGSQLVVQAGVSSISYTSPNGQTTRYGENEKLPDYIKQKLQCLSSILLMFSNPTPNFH
# Target: T1, human PLK4-PB3 (884–970), recombinant
# Test: ITC; synthetic STIL-CC peptide (414 µM) titrated into recombinant PB3 (35.5 µM); 50 mM Hepes pH 8.0, 150 mM NaCl, 1 mM TCEP; 25°C; 30 injections of 10 µl; one-site binding model
# Details: both partners purified
binder,measurement,value
"PDAYRFLTEQDRQLRLLQAQIQRLLEAQSLMP (peptide, UniProt Q15468 720-751, looked up, also called synthetic peptide corresponding to STIL-CC; source: synthetic peptide) [synthetic STIL-CC peptide]",Kd,0.28 ± 0.06 µM
same,stoichiometry N,1
